In CN113388031A (SHANGHAI INSTITUTE FOR ADVANCED STUDY OF ZHEJIANG UNIV, dated 2021):

Experiments:
[1] = molecular target: SARS-CoV-2突变株D614G S蛋白 (spike protein of the D614G mutant strain, on live virus) (SARS-CoV-2 D614G mutant strain, UniProt P0DTC2 14-1273); assay: cell-based or functional assay
[2] = molecular target: SARS-CoV-2突变株501Y.V2 (B.1.351) S蛋白 (spike protein of 501Y.V2, on live virus) (SARS-CoV-2 501Y.V2 (B.1.351), UniProt P0DTC2 14-1273); assay: cell-based or functional assay

B1: 单克隆抗体35B5 (monoclonal antibody 35B5) (antibody, V domains shown, not shown: large carriers)
VH: QVQLLESGGGLVQPGRSLRLSCAASGFTFDDYAMHWVRQAPGKGLEWVSGVSWNSGTIGYADSVKGRFTISRDNAKNSLYLHMRSLRAEDTALYYCAKAVEMVRGLMGLGADPEYGMDVWGQGTTVTVSS
VL: not shown
[1]
  IC50, live SARS-CoV-2 neutralisation on Vero E6 cells (plaque / focus assay): 0.00728 µg/mL
[2]
  IC50, live SARS-CoV-2 neutralisation on Vero E6 cells (plaque / focus assay): 0.013 µg/mL
